{"source": "paper PMC4840375", "key": {"[1]": {"target": "TraH, full length, purified and reconstituted in DDM micelles (Enterococcus faecalis (plasmid pIP501))", "assay": "native gel or EMSA; semi-native PAGE: sample buffer without SDS and reducing agent, 4 °C, 12.5% native gels, running buffer with 0.1% SDS; full-length TraH in DDM micelles; western blot"}, "[2]": {"target": "TraH, full length, purified and reconstituted in DDM micelles (Enterococcus faecalis (plasmid pIP501))", "assay": "cross-linking; in vitro, 8 μg purified protein, 300 mM NaCl, 100 mM bicine, 1 mM DTT, glutaraldehyde 0–1% (v/v), 15 min at RT; full-length TraH kept in DDM micelles; SDS-PAGE and western blot"}, "[3]": {"target": "TraH, full length, purified and reconstituted in DDM micelles (Enterococcus faecalis (plasmid pIP501))", "assay": "SEC; analytical SEC of full length TraH reconstituted in DDM micelles; 70 kDa taken for the micelle; apparent molecular weight"}, "[4]": {"target": "TraH expressed in E. faecalis JH2-2 (pEU327-RBS-traH) (Enterococcus faecalis (plasmid pIP501))", "assay": "cross-linking; in vivo, E. faecalis JH2-2 (pEU327-RBS-traH) cells in early log phase, formaldehyde 0.5–2% in PBS for 10 minutes; SDS-PAGE and western blot"}}}
{"substance": "TraH, full length, purified and reconstituted in DDM micelles (natural protein)", "values": [{"measurement": "stoichiometry N", "setting": "[1]", "value": 2}, {"measurement": "stoichiometry N", "setting": "[2]", "value": 2}, {"measurement": "stoichiometry N", "setting": "[3]", "value": 4}]}
{"substance": "TraH expressed in E. faecalis JH2-2 (pEU327-RBS-traH) (natural protein)", "values": [{"measurement": "stoichiometry N", "setting": "[4]", "value": 2}]}
